Data published in patent publication US8357515.

Columns and labels:
[1] = system: LAP-mIL-4 fusion protein with aggrecanase cleavage site B05 (HNEFRQRETYMVF)
Target sequence (chain, as listed by the source): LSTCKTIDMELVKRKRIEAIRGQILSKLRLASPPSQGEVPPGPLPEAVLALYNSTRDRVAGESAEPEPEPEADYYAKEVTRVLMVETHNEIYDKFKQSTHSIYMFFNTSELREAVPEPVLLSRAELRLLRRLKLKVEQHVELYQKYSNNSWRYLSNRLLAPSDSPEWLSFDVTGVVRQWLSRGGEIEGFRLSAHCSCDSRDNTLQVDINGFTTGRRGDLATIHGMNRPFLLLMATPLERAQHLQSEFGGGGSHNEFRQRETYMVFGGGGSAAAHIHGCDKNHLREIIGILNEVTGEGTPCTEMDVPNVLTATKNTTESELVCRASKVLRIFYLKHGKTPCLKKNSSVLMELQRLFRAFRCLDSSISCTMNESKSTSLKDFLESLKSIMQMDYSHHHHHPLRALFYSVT

[2] = system: LAP-MMP IL-4
[3] = system: LAP-mIL-4 fusion protein with aggrecanase cleavage site B06 (DVQEFRGVTAVIR)
Target sequence (chain, as listed by the source): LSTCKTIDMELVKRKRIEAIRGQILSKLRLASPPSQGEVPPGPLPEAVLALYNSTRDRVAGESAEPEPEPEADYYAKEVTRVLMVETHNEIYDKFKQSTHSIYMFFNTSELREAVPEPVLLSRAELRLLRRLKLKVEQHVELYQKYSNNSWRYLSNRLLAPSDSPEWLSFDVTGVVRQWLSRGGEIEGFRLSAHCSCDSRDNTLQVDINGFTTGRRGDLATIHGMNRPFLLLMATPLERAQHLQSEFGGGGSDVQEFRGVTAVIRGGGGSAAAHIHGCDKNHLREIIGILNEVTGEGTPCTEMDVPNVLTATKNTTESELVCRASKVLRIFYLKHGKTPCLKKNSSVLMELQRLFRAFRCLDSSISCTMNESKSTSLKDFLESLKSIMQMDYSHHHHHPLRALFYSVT

B1: ADAMTS-4 (aggrecanase-1), recombinant (enzyme, UniProt O75173 213-837, looked up, species assumed)
A disintegrin and metalloproteinase with thrombospondin motifs 4: FASLSRFVETLVVADDKMAAFHGAGLKRYLLTVMAAAAKAFKHPSIRNPVSLVVTRLVILGSGEEGPQVGPSAAQTLRSFCAWQRGLNTPEDSDPDHFDTAILFTRQDLCGVSTCDTLGMADVGTVCDPARSCAIVEDDGLQSAFTAAHELGHVFNMLHDNSKPCISLNGPLSTSRHVMAPVMAHVDPEEPWSPCSARFITDFLDNGYGHCLLDKPEAPLHLPVTFPGKDYDADRQCQLTFGPDSRHCPQLPPPCAALWCSGHLNGHAMCQTKHSPWADGTPCGPAQACMGGRCLHMDQLQDFNIPQAGGWGPWGPWGDCSRTCGGGVQFSSRDCTRPVPRNGGKYCEGRRTRFRSCNTEDCPTGSALTFREEQCAAYNHRTDLFKSFPGPMDWVPRYTGVAPQDQCKLTCQAQALGYYYVLEPRVVDGTPCSPDSSSVCVQGRCIHAGCDRIIGSKKKFDKCMVCGGDGSGCSKQSGSFRKFRYGYNNVVTIPAGATHILVRQQGNPGHRSIYLALKLPDGSYALNGEYTLMPSPTDVVLPGAVSLRYSGATAASETLSGHGPLAQPLTLQVLVAGNPQDTRLRYSFFVPRPTPSTPRPTPQDWLHRRAQILEILRRRPWAGRK
cleavage of the fusion protein in 293T supernatant after overnight incubation at 37 C, Western blot probed with anti-IL-4 antibody [1]: the Agg1 and Agg2 constructs are cleaved by ADAMTS-4
cleavage of the fusion protein in 293T supernatant after overnight incubation at 37 C, Western blot probed with anti-IL-4 antibody [2]: LAP-MMP IL-4 is only cleaved by MMP-1 (not cleaved by aggrecanase)
cleavage of the fusion protein in 293T supernatant after overnight incubation at 37 C, Western blot probed with anti-IL-4 antibody [3]: the Agg1 and Agg2 constructs are cleaved by ADAMTS-4
